Data reported in article PMC9372576, “Interaction of the gas vesicle proteins GvpA, GvpC, GvpN, and GvpO of Halobacterium salinarum” (Frontiers in Microbiology, 2022).
Values belong to the binder of their own block, whether it stands above or below them.

B1: GvpC fused to NGFP or CGFP (natural protein, Halobacterium salinarum, UniProt P24574 1-382, looked up)
chain: MSVTDKRDEMSTARDKFAESQQEFESYADEFAADITAKQDDVSDLVDAITDFQAEMTNTTDAFHTYGDEFAAEVDHLRADIDAQRDVIREMQDAFEAYADIFATDIADKQDIGNLLAAIEALRTEMNSTHGAFEAYADDFAADVAALRDISDLVAAIDDFQEEFIAVQDAFDNYAGDFDAEIDQLHAAIADQHDSFDATADAFAEYRDEFYRIEVEALLEAINDFQQDIGDFRAEFETTEDAFVAFARDFYGHEITAEEGAAEAEAEPVEADADVEAEAEVSPDEAGGESAGTEEEETEPAEVETAAPEVEGSPADTADEAEDTEAEEETEEEAPEDMVQCRVCGEYYQAITEPHLQTHDMTIQEYRDEYGEDVPLRPDDKT
notes: GvpC of the p-vac region of Halobacterium salinarum; gvpC amplified from the p-vac region; GFP fragment at the N- or C-terminus, 14 or 16 aa linker; source: Hfx. volcanii WR340 transformant, split-GFP fusion in living cells
B3: GvpN fused to NGFP or CGFP (natural protein, Halobacterium salinarum, UniProt Q9HI16 1-347, looked up)
chain: MTNESRKRKVRGSQIRSSRGDKKQGRSQSRDDKEIERLERQNDARGQESSTHVDEGFVPEEQSFIETESVNRVESRMERWLDVGRPVHLIGPTGCGKTSLAMHVARERDRPVVWINGDAELTTSDLVGEYAEKERISEHDQFIHNVVKSKDIIRDRWVDNPLTLAVQEGATLVYNEFSRTKPVANNVLLSVFEEGVLELPGKRGKSRYVDVHPEFRTILTSNSVEYAGVHEPQDALLDRLIGIYMDFYDLDTEIEIVRAHVDKSADTNVEDIVRVLRELRERLDITVGTRAAIMANEGATTVDTVDQAVLTDICTDVLASKVAQRSDVRGLREEIESAIDDMEVALS
notes: GvpN of the p-vac region of Halobacterium salinarum; gvpN amplified from the p-vac region; GFP fragment at the N- or C-terminus, 14 or 16 aa linker; source: Hfx. volcanii WR340 transformant, split-GFP fusion in living cells
B4: GvpA fragment A1-43 (domain or fragment, Halobacterium salinarum, UniProt P08958 1-43, looked up)
chain: MAQPDSSGLAEVLDRVLDKGVVVDVWARVSLVGIEILTVEARV
notes: GvpA of Halobacterium salinarum, alpha1-beta1-beta2; vector described in earlier work; source: Hfx. volcanii WR340 transformant, split-GFP fusion in living cells
B7: GvpA fragment A20-47 (domain or fragment, Halobacterium salinarum, UniProt P08958 20-47, looked up)
chain: GVVVDVWARVSLVGIEILTVEARVVAAS
notes: GvpA of Halobacterium salinarum, the two beta-sheets beta1-beta2; vector described in earlier work; source: Hfx. volcanii WR340 transformant, split-GFP fusion in living cells
B14: GvpC C-terminal fragment Cterm (domain or fragment, Halobacterium salinarum, UniProt P24574 329-382, looked up)
chain: ETEEEAPEDMVQCRVCGEYYQAITEPHLQTHDMTIQEYRDEYGEDVPLRPDDKT
notes: GvpC of Halobacterium salinarum, aa 329-382, the globular C-terminal domain with a zinc-finger motif; GFP fragment at the N- or C-terminus; source: Hfx. volcanii WR340 transformant, split-GFP fusion in living cells

Assays:
Assay in all cases: split reporter (BiFC, NanoBiT); split-GFP (NGFP and CGFP of salt-stable mGFP2) in Hfx. volcanii transformants, 24 h 37 °C then 24 h 30 °C; relative fluorescence (rf) against the wild type; the highest of eight tag combinations is given
[1] = target: the molecule itself
[2] = target: B3; conditions: partners not purified
GvpA fragment A20-47 = target: B7; conditions: partners not purified
GvpA fragment A44-76 = target: T1, GvpA fragment A44-76 (Halobacterium salinarum, UniProt P08958 44-76); conditions: partners not purified
T1 construct: GvpA of Halobacterium salinarum, mainly helix alpha3; vector described in earlier work; source: Hfx. volcanii WR340 transformant, split-GFP fusion in living cells
T1 chain (looked up): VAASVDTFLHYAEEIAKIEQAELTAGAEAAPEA

[3] = target: B14; conditions: partners not purified
[4] = target: B1; conditions: partners not purified
[5] = target: T2, GvpA fused to NGFP or CGFP (Halobacterium salinarum, UniProt P08958 1-76); conditions: partners not purified
T2 construct: the entire GvpA of the p-vac region of Halobacterium salinarum; gvpA reading frame; NGFP (mGFP2 up to aa 157) or CGFP (from aa 158) at the N- or C-terminus through a 14 aa (pJAS) or 16 aa (pWLfdx) linker; with GvpF and its variants CGFP stood at the C-terminus of GvpA (AC); also called NA; AN; source: Hfx. volcanii WR340 transformant, split-GFP fusion in living cells
T2 sequence (looked up): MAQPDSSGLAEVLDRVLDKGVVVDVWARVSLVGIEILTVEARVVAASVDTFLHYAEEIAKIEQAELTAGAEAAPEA

GvpA fragment A1-43 = target: B4; conditions: partners not purified

Binder: B1
- relative fluorescence (rf) [1]: 14.5 LAU/mm^2

- relative fluorescence (rf) [2]: < 5 LAU/mm^2
B2: GvpG fused to NGFP or CGFP (natural protein, Halobacterium salinarum, UniProt P24371 1-83, looked up)
chain: MFIIDDLFVSPFFSLLDILQTMALDEMYDTKSIRDDIKENQLLYEVGERSDEEYQQRKQALESQLEMAEQVQEQMRDRMEVKK
notes: accessory gas vesicle protein GvpG of Halobacterium salinarum; construct of earlier work; source: Hfx. volcanii WR340 transformant, split-GFP fusion in living cells

Binder: B3
- relative fluorescence (rf) [1]: > 10 LAU/mm^2

Binder: B4
- relative fluorescence (rf) (GvpA fragment A20-47): ≤ 0.48 LAU/mm^2
- relative fluorescence (rf) (GvpA fragment A44-76): ≤ 0.48 LAU/mm^2

- relative fluorescence (rf) [3]: > 18 LAU/mm^2
- relative fluorescence (rf) [4]: 28.6 LAU/mm^2
- relative fluorescence (rf) [2]: 16.9 LAU/mm^2
B5: GvpL fused to NGFP or CGFP (natural protein, Halobacterium salinarum, UniProt Q9HI27 1-281, looked up)
chain: MTDHRPSPEEEQTTANEERTVSNGRYLYCVVDTTSSESATLSTTGVDDNPVYVVEADGVGAVVHDCETVYETEDLEQVKRWLVTHQQVVDAASDAFGTPLPMRFDTVLEGGDASIERWLEDHYEGFRDELASFAGVWEYRINLLWDSAPFEETIADRDDRLRELRQRQQQSGAGKKFLLEKQSDQRLQELKRERRTELADQLKEAITPVVNDLTEQDTNTPLQDEHSSIEKEQIVRFAVLADEDDETALGDRLDTIVEHEGVEIRFTGPWPPYTFAPDIGK
notes: accessory gas vesicle protein GvpL of Halobacterium salinarum; construct of earlier work; source: Hfx. volcanii WR340 transformant, split-GFP fusion in living cells

- relative fluorescence (rf) [5]: 18 LAU/mm^2
- relative fluorescence (rf) [3]: > 18 LAU/mm^2
- relative fluorescence (rf) [4]: > 7.5 LAU/mm^2
- relative fluorescence (rf) [2]: < 5 LAU/mm^2
B6: GvpF fused to NGFP or CGFP (natural protein, Halobacterium salinarum, UniProt Q9HI21 1-213, looked up)
chain: MTENLYTYGIIEQEDLELDVEGVAGAEQVYTVDYKTLSAVVSDIDTTDPERTDEDVEAHNNVLQEVLKHEEERTVVPMSFGMAFKSARTLKGVLRGARRALRSTLNDIEGTVELGVKILGPGDDTVPREEIQENVTDQLADLSINETENDLFTDRLIINKSYLVDFEKRDAFDSAIDDVEAEYDELTIQYTGPWPPYNFVDIHIGAEQQQGGR
notes: GvpF (wild type) of the p-vac region of Halobacterium salinarum; R213 is the very last aa; parent of the GvpF variants; also called Fwt; WT; source: Hfx. volcanii WR340 transformant, split-GFP fusion in living cells

Binder: B7
- relative fluorescence (rf) (GvpA fragment A44-76): ≤ 0.48 LAU/mm^2

- relative fluorescence (rf) [2]: < 5 LAU/mm^2
B8: GvpJ fused to NGFP or CGFP (natural protein, Halobacterium salinarum, UniProt P24374 1-114, looked up)
chain: MSDPKPTRSQGDLAEMLEMLLDKGVVVNADIAVSVGDTELLGIELRAAIASFETAAEYGLEFPTGTDMERVESAANISPDQSDPASETQSETESTNPLSDDSTPTASTSAEETK
notes: accessory gas vesicle protein GvpJ of Halobacterium salinarum; construct of earlier work; source: Hfx. volcanii WR340 transformant, split-GFP fusion in living cells

- relative fluorescence (rf) [2]: < 5 LAU/mm^2
B9: GvpM fused to NGFP or CGFP (natural protein, Halobacterium salinarum, UniProt P24377 1-84, looked up)
chain: MEPTKDETHAIVEFVDVLLRDGAVIQADVIVTVADIPLIGISLRAAIAGMTTMTEYGLFEEWDAAHRQQSEAFTTSPTADRRED
notes: accessory gas vesicle protein GvpM of Halobacterium salinarum; construct of earlier work; source: Hfx. volcanii WR340 transformant, split-GFP fusion in living cells

- relative fluorescence (rf) (GvpA fragment A20-47): ≤ 0.48 LAU/mm^2
- relative fluorescence (rf) (GvpA fragment A1-43): ≤ 0.48 LAU/mm^2
- relative fluorescence (rf) (GvpA fragment A44-76): ≤ 0.48 LAU/mm^2
B10: GvpA fragment A1-34 (domain or fragment, Halobacterium salinarum, UniProt P08958 1-34, looked up)
chain: MAQPDSSGLAEVLDRVLDKGVVVDVWARVSLVGI
notes: GvpA of Halobacterium salinarum, alpha1 plus beta-sheet 1; vector described in earlier work; source: Hfx. volcanii WR340 transformant, split-GFP fusion in living cells

- relative fluorescence (rf) [2]: < 5 LAU/mm^2
B11: GvpK fused to NGFP or CGFP (natural protein)
chain: not shown
notes: accessory gas vesicle protein GvpK of Halobacterium salinarum; construct of earlier work; source: Hfx. volcanii WR340 transformant, split-GFP fusion in living cells

- relative fluorescence (rf) [3]: > 18 LAU/mm^2
- relative fluorescence (rf) [4]: > 7.5 LAU/mm^2
- relative fluorescence (rf) [2]: < 5 LAU/mm^2
B12: GvpI fused to NGFP or CGFP (natural protein, Halobacterium salinarum, UniProt Q9HI24 1-144, looked up)
chain: MSDKQQQKHKQKARQARVKAQINRDKARRNLLRQREKLARRRTRNRKQSEPRRDDSDGDDTDGETVKNPAAHSTMPPQKSNAENAVRNSHSTVPKTPKYSDVTARERLYGQRLHQKTAGGNSEASAPSDESASGSPTEDEVNDE
notes: accessory gas vesicle protein GvpI of Halobacterium salinarum; construct of earlier work; source: Hfx. volcanii WR340 transformant, split-GFP fusion in living cells

- relative fluorescence (rf) [3]: 42.6 LAU/mm^2
- relative fluorescence (rf) [4]: > 7.5 LAU/mm^2
- relative fluorescence (rf) [2]: < 5 LAU/mm^2
B13: GvpH fused to NGFP or CGFP (natural protein, Halobacterium salinarum, UniProt P24372 1-182, looked up)
chain: MVPDENDDASDDQSSQLSGLLDQLHTLVEVLADIEEEGGHRHESGRIDRGNARIDYDYDVSIGLGRADGSSYDEEPSSNRSRSEQRSGQQRTTEDSIHVETRGGTSGDELVVVADLPGVTDDDVDVALDTDEQALTLRVDDDVVERVVLDRPDVAITDMTLRNQVLEIRLARTSDTDGGEST
notes: accessory gas vesicle protein GvpH of Halobacterium salinarum; construct of earlier work; source: Hfx. volcanii WR340 transformant, split-GFP fusion in living cells

Binder: B14
- relative fluorescence (rf) [5]: < 2.5 LAU/mm^2
- relative fluorescence (rf) [1]: 20.7 LAU/mm^2
